# Measurements taken from the supplement of paper PMC9732359.
# ± gives the uncertainty stated by the source.
# Experiment: protein stability index of a GFP-peptide fusion (yeast GPS) (PSI 1-4); higher = more stable; sorted into four equal gates, so the index is relative within each strain
# Settings: doa10∆
# Method in brief: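 The protein stability index of a peptide was calculated by multiplying its read frequency in each gate by that gate's number and adding the products. The peptides were tiled 17-residue stretches of yeast proteins, fused downstream of GFP on a Cherry-expressing plasmid and carried in yeast as a pooled library. Mid-log cultures in leucine-free medium were sorted into four equal gates by GFP/Cherry ratio, and each gate's plasmids were PCR-amplified and Illumina-sequenced.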
row,Sequence,protein stability index
1,DRPGSKFHKREVVEAVT [RPL3],3.04 ± 0.15

# Same assay, conditions: pdr5∆
row,Sequence,protein stability index
1,CDVFWVQKDTAIIRLHP [POP1],2.62 ± 0.097
2,CEKWAASSWAKKIAQRE [RPL14A],3.16 ± 0.12
3,CFDSTTGRDAGFGILED [RRP40],3.24 ± 0.13
4,CFKPMSLTSKRLISQSL [RIP1],2.42 ± 0.16
5,CFSINDDPVPTPPAIEH [SSN2],2.1 ± 0.26
6,CIIAVSCTLLERGHPKD [POP1],1.52 ± 0.029
7,CISLGSTKLSRPFDSFG [ITC1],2.93 ± 0.061
8,CITLDQLAVRAPKGQNT [RPL18A],3.39 ± 0.2
9,CKIDFQKNFMDQFQWIL [RRI2],1.47 ± 0.092
10,CKNFEKTQLGSTMTEPV [GAL11],2.84 ± 0.065
11,CRVCSSHTGLVRKYDLN [RPS29B],2.33 ± 0.059
12,CSDFVKILNLEKPLILA [NUT1],1.39 ± 0.064
13,CSHIFTSDQKNKRTQFS [RPB9],2.72 ± 0.052
14,CVEWRLPEIAKEIYTTL [YJR042W/NUP85],1.46 ± 0.071
15,DALRRGMLAMASLHSKE [MED4],2.23 ± 0.15
16,DAPFNKVVLKALFLSKI [RPL18A],1.56 ± 0.074
17,DARGVIGVIAGGGRVDK [RPL2A],3.11 ± 0.11
18,DASPAPSNESCSPWSLQ [SRB5],2.43 ± 0.052
19,DASPDSLEALIDLCHDF [YCS4],2.9 ± 0.047
20,DAVLKIFSFHQDSIFQR [SRB8],2.79 ± 0.12
21,DDDDDEDEEEEEEVTDQ [QCR6],3.73 ± 0.22
22,DDEPTTPAELVGKFLGY [FAS1],3.34 ± 0.14
23,DDFEEDEDEEDDDDYNA [RPC31],3.31 ± 0.12
24,DDFTDAIQFVKENELLF [YCS4],2.04 ± 0.061
25,DDLQKFNGIENQSAYEW [ISW2],3.23 ± 0.21
26,DDNEMTRDDLLTILMRS [RRI2],2.66 ± 0.19

row,Sequence,protein stability index
1,DDNNNNNNNNNNNNSTR [GRR1],3.02 ± 0.042
2,DDRVDKKFVSQIQKNVD [POP3],3.44 ± 0.12
3,DDYDYVMYGTAYKFEEV [RPB8],2.89 ± 0.048
4,DDYSNLKREERQGLIHQ [SMC3],2.6 ± 0.1
5,DEDLLDTQTFSVLLQQL [YGL172W/NUP49],2.81 ± 0.063
6,DEELVSHFVSAVSTIAS [RPP0],3.12 ± 0.28
7,DEFIKTHEDLPKEVDGL [IRR1],3.29 ± 0.094
8,DEFKDITKEVTQVNILK [YIL149C/MLP2],3.2 ± 0.075
9,DEGGAKSLLLNTLNIDN [BRN1],3.16 ± 0.097
10,DEIKAQRKEIKDRISSC [SMC4],3.03 ± 0.054
11,DENGTNSAIANEQEEKS [RPC37],2.83 ± 0.1
12,DEQDDDNVNSTTGSIFE [BRN1],2.92 ± 0.13
13,DFDDFLKLGLVEYLDVN [RET1],3.07 ± 0.1
14,DFHFSTDRITRLFIKPG [BRN1],2.6 ± 0.046
15,DFITGSYLISHKDSFYD [RPO31],1.94 ± 0.049
16,DFKEVEDFLHFIVAEYI [SRB4],3.22 ± 0.11
17,DFKTDVDEPMTSAVELG [YJL039C/NUP192],2.28 ± 0.068
18,DFTLPEDFAPLLAEEEE [PRP8],3.64 ± 0.22
19,DFTQEDELRKQELISKA [ISW2],3.1 ± 0.076
20,DFYTRHHFTCEITGTSC [ITC1],1.64 ± 0.045
21,DGDASKPAFSFGAKPDE [YJL041W/NSP1],3.25 ± 0.058
22,DGHYIEENSQGNILDFN [REC8],2.67 ± 0.098
23,DHNALPQRCTFAFEAID [POP1],2.84 ± 0.077
24,DIAGQRDDALVVETITS [RRP42],3.28 ± 0.094
25,DIDLETYSFIDNDRFNV [YML103C/NUP188],2.54 ± 0.056
26,DIEAGDDDDNNESSSNT [DIS3],3.4 ± 0.2

row,Sequence,protein stability index
1,DIFVYLTYDKDLTNNPQ [MTR3],1.98 ± 0.073
2,DIGSDPTLPRSDRECPK [RPB9],2.94 ± 0.078
3,DILLCYQKLFSQFINDH [SRB8],2.64 ± 0.037
4,DILLNERVWNICLYSSF [AAR2],1.68 ± 0.064
5,DINVESLTQSVCDLALR [PUP2],1.91 ± 0.067
6,DIPLAKALDNACGAFIN [CDC53],3.1 ± 0.067
7,DITGDIRNEGSDAEEEE [ISW2],3.1 ± 0.1
8,DITVHGEQIIVHPVNER [RRP45],2.15 ± 0.1
9,DKDNPVDSRNETDHKTN [SRB4],2.85 ± 0.15
10,DKFPYKKLELPKYIDEL [SWP82],2 ± 0.058
11,DKFRKACSSSGRETILS [SIR3],2.08 ± 0.042
12,DKHLYHVLYKESKGNAF [RPL19A],3.39 ± 0.089
13,DKIHARARGPMQVLTRQ [RPB2],3.22 ± 0.12
14,DKINQLSVVKYLLASLK [RPN9],2.15 ± 0.2
15,DKKHFNNKNKRVTGAGG [RPC53],2.53 ± 0.17
16,DKKKGQNVTSETHSKKR [ITC1],3.12 ± 0.076
17,DKKVTLITSEMFDAFVS [SIN4],1.46 ± 0.049
18,DKLSGCYAPRPSAGPHK [RPS4A],1.96 ± 0.063
19,DKLTSIQDTLRTGSQSP [MED7],2.82 ± 0.045
20,DKPYLLRIVTHLAICLD [YDL116W/NUP84],1.28 ± 0.08
21,DKQYRTAVATLLKELSK [SMC3],2.13 ± 0.084
22,DKRFSGSLKLPNCPRPN [RPL1A],3.05 ± 0.052
23,DLIADTITNSSSSSDII [YML103C/NUP188],2.46 ± 0.046
24,DLIETSFTCFAQFVSNK [NUT1],2.01 ± 0.075
25,DLKDILEKVVPLINVVV [BRR2],1.91 ± 0.077
26,DLLPNSFAKLVPCEGKD [SMC2],2.73 ± 0.038

row,Sequence,protein stability index
1,DLNHVTEELQTQYATSQ [SMC2],3.17 ± 0.12
2,DLNPLKTLNLFKQIKSA [RPO31],1.37 ± 0.033
3,DLPETGFFENIETEFLL [IRR1],3.18 ± 0.1
4,DLQRTQTLSEKEYQCSA [YIL149C/MLP2],2.97 ± 0.091
5,DLSWSKQTDTGITHFRA [PRP8],3.11 ± 0.057
6,DLVLGKPLADLRPLFTR [YLR335W/NUP2],2.76 ± 0.11
7,DMENMADEQKRSTDVWY [ARP7],2.31 ± 0.04
8,DMLKYKEDEPVVARRSN [ITC1],2.42 ± 0.098
9,DNFDYFNQRDGEHEKSN [MED1],3 ± 0.2
10,DNIDEKVVKAIRIYFTE [NUT1],3 ± 0.061
11,DNISSFHSAVENLVQGN [YCG1],3 ± 0.064
12,DNMSEEQWLRQFEVSDD [SNF2],3.22 ± 0.094
13,DNSESHPFIPLLKEKPN [RRP6],1.93 ± 0.059
14,DNSPSEDFMDIPKPRTA [SNF2],2.83 ± 0.11
15,DPELLRSYIFGGHVSQY [RPL5],3.58 ± 0.13
16,DPESRTQSYNNQNTLKE [POP1],2.69 ± 0.056
17,DPRNLVNQTGSTKKDTV [YCG1],3.15 ± 0.084
18,DPSQNRLTGSLLAHKVA [RPC37],2.15 ± 0.06
19,DQFRDVEITFGKEFGDV [RRP45],3.27 ± 0.063
20,DQLIISSSANKLLQLFL [YML103C/NUP188],2.17 ± 0.066
21,DQSNVQYYLSVLNQQLP [BRR2],3.03 ± 0.072
22,DQTFPINCNKETIENVK [ECM29],2.93 ± 0.099
23,DQVVVRGIDTLQKKVAS [RPB3],3.29 ± 0.19
